The record followed here is PMC4605657, “Interaction between TATA-Binding Protein (TBP) and Multiprotein Bridging Factor-1 (MBF1) from the Filamentous Insect Pathogenic Fungus Beauveria bassiana”.

First the molecules themselves.
B1: TATAC (dsDNA)
DNA 1: CAGTAAAAGCTTGGTAGTATTTATATCTTCTCTCTTTCAC
DNA 2: GTGAAAGAGAGAAGATATAAATACTACCAAGCTTTTACTG
B2: TATA0 (dsDNA)
DNA 1: CAGTAAAAGCTTGGTAGTATTTCTTCTCTCTTTCAC
DNA 2: GTGAAAGAGAGAAGAAATACTACCAAGCTTTTACTG
B3: TATAP (dsDNA)
DNA 1: GGAGCGGCATATGTCAAGTATAAAGAGCGGAATGTTTTTC
DNA 2: GAAAAACATTCCGCTCTTTATACTTGACATATGCCGCTCC

This data set concerns the target BbMBF1 (multiprotein bridging factor 1) (Beauveria bassiana, UniProt J4WFU2 1-153). The experiment in a line: EMSA; Binding buffer (4 ul in 20 ul reaction): 60 mM KCl, 20 mM Tris pH 7.9, 5 mM MgCl2, 10 mM DTT, 0.2 mg/ml BSA, 10% glycerol; 30 min at 37 C; 6% non-denaturing PAGE. Conditions: protein: recombinant; tags: 6xHis (C-terminal; pET28a, thrombin site); blunt. In general terms: Mobility shift assays separate free from complexed probe on a gel.
On to B1, for which the binding result is reported as “no binding”.
On to B2, for which the binding result is recorded as “no binding”.
For the molecule B3, the binding result was “no binding”.
